Measurements published in patent US20160297851A1 (Scripps Research, published 2016).
Positions count from the first letter of the chain named. Read-outs that look alike come from different tables or passages of the source.

Assays:
[1] = target: T1, detergent-solubilized full-length wild type E. coli SPase (His6x-tagged) (Escherichia coli, UniProt P00803 1-324); assay: steady-state binding by increase of arylomycin fluorescence; detergent-solubilized full-length His-tagged SPase
T1 construct: Plasmid pET23-lepB came from Dr. Mark Paetzel; also called full-length Pro-variant of E. coli SPase; full length His-tagged E. coli SPase; not shown: His6x tag of plasmid pET23-lepB

[2] = target: T2, P84S variant of detergent-solubilized full-length E. coli SPase (His6x-tagged) (Escherichia coli, UniProt P00803 1-324); assay: as above
[3] = target: T1, detergent-solubilized full-length wild …; assay: steady-state increase of arylomycin fluorescence (ex 320 nm, em 410 nm) on binding detergent-solubilised full-length wild type E. coli SPase
[4] = target: T3, Staphylococcus epidermidis signal peptidase IB S31P (strain PAS9002) (Staphylococcus epidermidis); assay: cell-based or functional assay
T3 chain: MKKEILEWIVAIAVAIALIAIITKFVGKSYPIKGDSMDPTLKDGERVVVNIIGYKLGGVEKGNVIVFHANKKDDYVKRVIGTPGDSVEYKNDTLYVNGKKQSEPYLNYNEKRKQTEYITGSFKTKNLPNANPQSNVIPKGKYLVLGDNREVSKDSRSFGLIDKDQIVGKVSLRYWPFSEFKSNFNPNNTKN

[5] = target: T4, Staphylococcus epidermidis signal peptidase IB S29P (strain PAS9001) (Staphylococcus epidermidis); assay: cell-based or functional assay
T4 chain: T3 chain with S29P, P31S

[6] = target: T5, S. aureus SPase (SpsB) P29S, strain PAS8001, in the bacteria (Staphylococcus aureus); assay: cell-based or functional assay
[7] = target: T6, E. coli MG1655 SPase (LepB), wild type, in the bacteria (Escherichia coli, UniProt P00803 1-324); assay: cell-based or functional assay
[8] = target: T4, Staphylococcus epidermidis signal …; assay: cell-based or functional assay
[9] = target: T7, S. aureus NCTC 8325 SPase (SpsB), wild type, in the bacteria (Staphylococcus aureus); assay: cell-based or functional assay
[10] = target: E. coli MG1655 SPase (LepB) P84L, in the bacteria (E. coli, UniProt P00803 1-324); assay: cell-based or functional assay
[11] = target: T8, P. aeruginosa PAO1 SPase (LepB), wild type, in the bacteria (Pseudomonas aeruginosa, UniProt Q9I5G7 1-284); assay: cell-based or functional assay
T8 sequence: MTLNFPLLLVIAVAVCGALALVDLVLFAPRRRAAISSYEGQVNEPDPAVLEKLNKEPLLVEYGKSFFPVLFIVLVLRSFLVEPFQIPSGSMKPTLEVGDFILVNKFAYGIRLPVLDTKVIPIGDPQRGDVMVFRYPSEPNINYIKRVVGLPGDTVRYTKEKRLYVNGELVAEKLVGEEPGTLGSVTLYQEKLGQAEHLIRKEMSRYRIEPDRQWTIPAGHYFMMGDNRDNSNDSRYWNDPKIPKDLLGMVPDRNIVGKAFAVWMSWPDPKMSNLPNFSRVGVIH

[12] = target: T9, Staphylococcus epidermidis RP62A signal peptidase IB, wild type (Staphylococcus epidermidis); assay: cell-based or functional assay
T9 chain: T3 chain with P31S

[13] = target: T2, P84S variant of detergent-solubilized …; assay: steady-state increase of arylomycin fluorescence (ex 320 nm, em 410 nm) on binding detergent-solubilised full-length E. coli SPase P84S
[14] = target: T5, S. aureus SPase (SpsB) P29S, strain …; assay: cell-based or functional assay; remark: listed apart in the source
[15] = target: T3, Staphylococcus epidermidis signal …; assay: cell-based or functional assay
[16] = target: T6, E. coli MG1655 SPase (LepB), wild type, …; assay: cell-based or functional assay; remark: listed apart in the source
[17] = target: T4, Staphylococcus epidermidis signal …; assay: cell-based or functional assay
[18] = target: T7, S. aureus NCTC 8325 SPase (SpsB), wild …; assay: cell-based or functional assay; remark: listed apart in the source
[19] = target: T8, P. aeruginosa PAO1 SPase (LepB), wild …; assay: cell-based or functional assay; remark: listed apart in the source
[20] = target: E. coli SPase (LepB) P84S, strain PAS0232, in the bacteria (Escherichia coli, UniProt P00803 1-324); assay: cell-based or functional assay
[21] = target: T9, Staphylococcus epidermidis RP62A signal …; assay: cell-based or functional assay
[22] = target: T10, P. aeruginosa SPase (LepB) P84S, strain PAS2006, in the bacteria (Pseudomonas aeruginosa, UniProt Q9I5G7 1-284); assay: cell-based or functional assay
T10 sequence: T8 sequence

B1: arylomycin C16 (peptide)
peptide: SAGXAY
modifications: C16 fatty acyl (palmitoyl) tail on the N-terminus of N-methyl-D-Ser2; D-Ala3; N-methyl-4-hydroxyphenylglycine (MeHpg) at 5, written X; biaryl bridge between MeHpg5 and Tyr7 (macrocycle MeHpg5-Ala6-Tyr7); free C-terminal carboxyl; the filing counts the lipid tail as position 1
notes: Synthetic lipohexapeptide derived from the natural product arylomycin A2, with a straight C16 fatty acid tail; It has non-standard and D-residues and is macrocyclic, so it is a borderline case of 'peptide'; also called arylomycin A-C16; Arylomycin A2 C16
[1]
  Kd: 60 nM
[2]
  Kd: 5.7 nM
[3]
  EC50 (read off the curve): ~100 nM
[4]
  fold elevation of MIC compared to the wild type strain: > 256 fold
[5]
  fold elevation of MIC compared to the wild type strain: 32 fold
[6]
  MIC: 2 µg/mL
[7]
  MIC: > 64 µg/mL
[8]
  MIC: 8 µg/mL
[9]
  MIC: > 64 µg/mL
[10]
  MIC: 0.5 µg/mL
[11]
  MIC: > 64 µg/mL
[12]
  MIC: 0.5 µg/mL
[13]
  EC50 (read off the curve): ~10 nM
  Kd: 5.73 nM
[14]
  MIC: 2 µg/mL
[15]
  MIC: > 128 µg/mL
[16]
  MIC: > 128 µg/mL
[17]
  MIC: 8 µg/mL
[18]
  MIC: > 128 µg/mL
[19]
  MIC: > 128 µg/mL
[20]
  MIC: 2 µg/mL
[21]
  MIC: 0.25 µg/mL
[22]
  MIC: 8 µg/mL
